Laboratory results: publication doi:10.1101/2024.04.29.591313, “Discovery of a synthetic small molecule targeting the central regulator of Salmonella pathogenicity” (bioRxiv, 2024)

Biological target: the molecule itself
Experiment: SEC-MALS; Superdex 75 Increase 10/300 GL; HilD (100 μM) incubated with 1% (v/v) DMSO or C26 (100 µM) for 20 min at room temperature; SEC buffer (50 mM NaH2PO4, pH 7.0, 200 mM NaCl); 0.5 ml/min

B1: HilD (natural protein)
chain: MENVTFVSNSHQRPAADNLQKLKSLLTNTRQQIKSQTQQVTIKNLYVSSFTLVCFRSGKLTISNNHDTIYCDEPGMLVLKKEQVVNVTLEEVNGHMDFDILEIPTQRLGALYALIPNEQQTKMAVPTEKAQKIFYTPDFPARREVFEHLKTAFSCTKDTSKGCSNCNNKSCIENEELIPYFLLFLLTAFLRLPESYEIILSSAQITLKERVYNIISSSPSRQWKLTDVADHIFMSTSTLKRKLAEEGTSFSDIYLSARMNQAAKLLRIGNHNVNAVALKCGYDSTSYFIQCFKKYFKTTPSTFIKMANH
notes: HilD, transcriptional regulator of Salmonella enterica serovar Typhimurium; the hilD gene was cloned into pET-24a(+) with an N-terminal His6-SUMO fusion; Dimer by SEC-MALS; 9 (printed only as an image); also called HilDWT; recombinant HilD; source: E. coli C41(DE3), purified (Ni-NTA, SUMO protease cleavage, second Ni-NTA, SEC Superdex 75); not shown: His6, N-terminal, cleaved; SUMO, N-terminal, …
stoichiometry N: 2
